Source: paper PMC8104411, “The structure of MgtE in the absence of magnesium provides new insights into channel gating” (PLoS Biology, 2021)
Several values for one entry are separate records, joined by “and”; a condition that tells them apart may be missing. Equal entries are not always repeated.

What was measured:
[1] = target: the molecule itself; assay: cryo-EM structure; full-length MgtE-Fab705 complex in PMAL-C8 amphipol, no Mg2+ or other divalent cations; 3.7 Å, C2 symmetry imposed
[2] = target: the molecule itself; assay: cross-linking; disulfide cross-linking with Cu2+ bis-1,10-phenanthroline, 0.5 mg/ml MgtE mutant in 20 mM HEPES pH 7.0, 150 mM NaCl, 0.05% DDM, MgCl2 gradient (0.01 to 30 mM), 4°C, non-reducing SDS-PAGE
[3] = target: T1, full-length MgtE from Thermus thermophilus (Thermus thermophilus HB8 (ATCC 27634 / …, UniProt Q5SMG8)); assay: ITC; Fab705 (25 uM) injected into the cell with full-length MgtE (about 2.5 uM monomer); 25°C; 20 mM HEPES pH 7.0, 150 mM NaCl, 0.05% DDM, 0 mM MgCl2; three repeats listed one by one; details: both partners purified
T1 construct: Mg2+ channel MgtE, Thermus thermophilus, full length; homodimer; In DDM micelles for ITC; source: E. coli C41 (DE3), purified (DDM solubilisation, Ni-NTA, HRV3C cleavage, SEC); not shown: His6, N-terminal, cleaved

[4] = target: T2, full-length Thermus thermophilus MgtE (Thermus thermophilus, UniProt Q5SMG8); assay: ITC; Fab705 (25 uM) injected into full-length MgtE (about 2.5 uM monomer) in the cell; 25°C; 20 mM HEPES pH 7.0, 150 mM NaCl, 0.05% DDM, 0 mM MgCl2; details: both partners purified
T2 construct: MgtE Mg2+ channel, Thermus thermophilus, full-length gene in a pET28a-derived vector with an N-terminal hexahistidine tag and an HRV3C site; the cryo-EM model holds only residues 271 to 448 (TM domain); Homodimer; also called wild-type MgtE; WT MgtE; source: E. coli C41 (DE3), purified (Ni-NTA, SEC) in DDM; for cryo-EM reconstituted in PMAL-C8 amphipol; not shown: His6, N-terminal, cleaved

B1: full-length Thermus thermophilus MgtE (natural protein, UniProt Q5SMG8 1-450, looked up)
chain: MEEKLAVSLQEALQEGDTRALREVLEEIHPQDLLALWDELKGEHRYVVLTLLPKAKAAEVLSHLSPEEQAEYLKTLPPWRLREILEELSLDDLADALQAVRKEDPAYFQRLKDLLDPRTRAEVEALARYEEDEAGGLMTPEYVAVREGMTVEEVLRFLRRAAPDAETIYYIYVVDEKGRLKGVLSLRDLIVADPRTRVAEIMNPKVVYVRTDTDQEEVARLMADYDFTVLPVVDEEGRLVGIVTVDDVLDVLEAEATEDIHKLGAVDVPDLVYSEAGPVALWLARVRWLVILILTGMVTSSILQGFESVLEAVTALAFYVPVLLGTGGNTGNQSATLIIRALATRDLDLRDWRRVFLKEMGVGLLLGLTLSFLLVGKVYWDGHPLLLPVVGVSLVLIVFFANLVGAMLPFLLRRLGVDPALVSNPLVATLSDVTGLLIYLSVARLLLEAV
notes: MgtE Mg2+ channel, Thermus thermophilus, full-length gene in a pET28a-derived vector with an N-terminal hexahistidine tag and an HRV3C site; the cryo-EM model holds only residues 271 to 448 (TM domain); Homodimer; also called wild-type MgtE; WT MgtE; source: E. coli C41 (DE3), purified (Ni-NTA, SEC) in DDM; for cryo-EM reconstituted in PMAL-C8 amphipol; not shown: His6, N-terminal, cleaved
- stoichiometry N [1]: 2

B2: MgtE double cysteine mutant T336C/L421C (natural protein, Thermus thermophilus, UniProt Q5SMG8 1-450, looked up)
chain: MEEKLAVSLQEALQEGDTRALREVLEEIHPQDLLALWDELKGEHRYVVLTLLPKAKAAEVLSHLSPEEQAEYLKTLPPWRLREILEELSLDDLADALQAVRKEDPAYFQRLKDLLDPRTRAEVEALARYEEDEAGGLMTPEYVAVREGMTVEEVLRFLRRAAPDAETIYYIYVVDEKGRLKGVLSLRDLIVADPRTRVAEIMNPKVVYVRTDTDQEEVARLMADYDFTVLPVVDEEGRLVGIVTVDDVLDVLEAEATEDIHKLGAVDVPDLVYSEAGPVALWLARVRWLVILILTGMVTSSILQGFESVLEAVTALAFYVPVLLGTGGNTGNQSACLIIRALATRDLDLRDWRRVFLKEMGVGLLLGLTLSFLLVGKVYWDGHPLLLPVVGVSLVLIVFFANLVGAMLPFLLRRLGVDPACVSNPLVATLSDVTGLLIYLSVARLLLEAV
notes: MgtE Mg2+ channel, Thermus thermophilus, with two cysteine substitutions; wild-type MgtE has no endogenous cysteine; source: E. coli C41 (DE3), purified as the wild type, with 20 mM DTT added before its removal by SEC; not shown: His6, N-terminal, cleaved
- binding result [2]: binds

B3: Fab705 (Fab, V domains shown)
VH: EVKLQESGVELVKPGASVKISCKASGYSFTGYNMNWVKQSHGKSLEWIGNISPYYGTSIYNQNFKGKATLTVDRSSSTAYMQLNSLTSEDSAVYYCARGESFSNYEGYYAMDYWGQGTSVIVSS
VL: DVLMTQTPLSLPVSLGDQASISCRSSQSLVHSDGNTYLHWYLQKPGQSPKLLIYKVSNRFSGVPDRFSGSGSGTDFTLKISRVEAEDLGVYFCSQSTHVPWTFGGGTKLEIK
notes: heavy chain of Fab YN0705; in the deposited MgtE-Fab structure PDB 6LBH; light chain of Fab YN0705; Fab made by papain digestion of the mouse monoclonal IgG YN0705 raised against MgtE proteoliposomes; also called Fab YN0705; Fab antibody fragment Fab705; source: mouse hybridoma culture supernatant; IgG purified by protein G, digested with papain, Fab isolated by gel filtration and protein A …
- Kd [3]: 187 nM and 164 nM
- stoichiometry N [3]: 0.89 and 0.9 and 0.83

B4: Fab antibody fragment Fab705 (Fab, V domains shown)
VH: EVKLQESGVELVKPGASVKISCKASGYSFTGYNMNWVKQSHGKSLEWIGNISPYYGTSIYNQNFKGKATLTVDRSSSTAYMQLNSLTSEDSAVYYCARGESFSNYEGYYAMDYWGQGTSVIVSS
VL: DVLMTQTPLSLPVSLGDQASISCRSSQSLVHSDGNTYLHWYLQKPGQSPKLLIYKVSNRFSGVPDRFSGSGSGTDFTLKISRVEAEDLGVYFCSQSTHVPWTFGGGTKLEIK
notes: heavy chain of the mouse Fab YN0705; light chain of the mouse Fab YN0705; Fab made by papain digestion of the mouse monoclonal IgG YN0705 raised against MgtE proteoliposomes; also called Fab YN0705; YN0705; source: mouse hybridoma culture supernatant; IgG purified by protein G, digested with papain, Fab isolated by gel filtration and protein A chromatography
- Kd [4]: 216 ± 52.7 nM
